Measured values published in the supplement of paper PMC9170038.

System: K4 kissing-loop RNA reporter
Experiment: apparent KD of K4 kissing-loop reporter; higher = weaker reporter binding
Conditions: Eterna round: R107
Experimental: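 RNA-MaP round R107: designed RNA switches with theophylline, tryptophan, arginine or FMN aptamers are transcribed on-chip within common flanks. They are titrated with a labelled K4 kissing-loop RNA reporter in RNA-MaP buffer (100 mM Tris pH 7.5, 80 mM KCl, 4 mM MgCl2), without ligand or with the indicated ligand. Median apparent KD per design.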

[1] = input ligand: theophylline 20 uM
[2] = input ligand: tryptophan 2.4 mM
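Further: bound reporter read as fluorescence of individual clusters on recovered sequencing chips by microscopy, with normalized cluster intensities fitted with a binding model.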

AAACAUUGGUCUGAUACCAGCUGAUCGGAAACGAUCAUGCUGGAGUGAUGUUCCAGGAAAAGCCCUUGGCAGCAGACCGAUGAAA [MAT - Same State Theophlline B - Mod of Eli - D28]
apparent KD of K4 kissing-loop reporter (input ligand: FMN 200 uM): 94.7 nM | apparent KD of K4 kissing-loop reporter (input ligand: arginine 13.2 mM): 103 nM | apparent KD of K4 kissing-loop reporter (input ligand: none): 75.6 nM | apparent KD of K4 kissing-loop reporter [1]: 184 nM | apparent KD of K4 kissing-loop reporter [2]: 137 nM

AUUAAUUUCAGAGGAUAUCGUAUUUAUAUUUUAUCUUUCCAUAUUUGCAGUGAUGUUGCAUUAAUUCGAGAAGGCUGAUUUAUAA [JR_ExcFMNB_Sub008]
apparent KD of K4 kissing-loop reporter (input ligand: FMN 200 uM): 79 nM | apparent KD of K4 kissing-loop reporter (input ligand: arginine 13.2 mM): 84 nM | apparent KD of K4 kissing-loop reporter (input ligand: none): 61.5 nM | apparent KD of K4 kissing-loop reporter [1]: 75.1 nM | apparent KD of K4 kissing-loop reporter [2]: 55.5 nM

AAACGUUGGUCUGAUACCAGCUGAUCGGAAACGAUCUUGCUGGAGUGAUGUUCCAGGAAAAGCCCUUGGCAGCAGACCGACGAAA [MAT - Same State Theophlline B - Mod of Eli - D25]
apparent KD of K4 kissing-loop reporter (input ligand: FMN 200 uM): 901 nM | apparent KD of K4 kissing-loop reporter (input ligand: arginine 13.2 mM): 714 nM | apparent KD of K4 kissing-loop reporter (input ligand: none): 1510 nM | apparent KD of K4 kissing-loop reporter [1]: 1260 nM | apparent KD of K4 kissing-loop reporter [2]: 894 nM

AUAGGAGUGAUGUUCCUUAGUUUCUCCGAUACCAGUAUGGAAACAUACCCUUGGCAGCGGGAGACCGCUGAUUAGGAAACUAGUC [Theophylline A K4 8]
apparent KD of K4 kissing-loop reporter (input ligand: FMN 200 uM): 255 nM | apparent KD of K4 kissing-loop reporter (input ligand: arginine 13.2 mM): 242 nM | apparent KD of K4 kissing-loop reporter (input ligand: none): 261 nM | apparent KD of K4 kissing-loop reporter [1]: 251 nM | apparent KD of K4 kissing-loop reporter [2]: 220 nM

GCGCGGGAGUGAUGUUCCAAGUGGUGUUAGCGAGGACCGGUACGGCCGCCACUCGUUACGGCCGGGCCGUAGGAUACACUGGCGC [Same State - Tryptophan A (Freestyle 17)]
apparent KD of K4 kissing-loop reporter (input ligand: FMN 200 uM): 308 nM | apparent KD of K4 kissing-loop reporter (input ligand: arginine 13.2 mM): 218 nM | apparent KD of K4 kissing-loop reporter (input ligand: none): 286 nM | apparent KD of K4 kissing-loop reporter [1]: 290 nM | apparent KD of K4 kissing-loop reporter [2]: 240 nM

UAAUAUAAUCUGUCGUAAACAAUAAUUAGUCAGGAUAUCGUAUAUUCGAGAAGGGACACUAUCUAGUGAUGUUAGAUAUUUCGUU [JR_SSFMNA_Sub026]
apparent KD of K4 kissing-loop reporter (input ligand: FMN 200 uM): 45.5 nM | apparent KD of K4 kissing-loop reporter (input ligand: arginine 13.2 mM): 76.4 nM | apparent KD of K4 kissing-loop reporter (input ligand: none): 53.4 nM | apparent KD of K4 kissing-loop reporter [1]: 67.5 nM | apparent KD of K4 kissing-loop reporter [2]: 47.6 nM

UUCUACGAGUGAUGUUCGUAGUGUAUUCACUAGGAUAUCGUUUUUUCGAGAAGGAGUGAGGAAGUGAUACGAAAGUAUCGCUUCC [FMN A 15]
apparent KD of K4 kissing-loop reporter (input ligand: FMN 200 uM): 192 nM | apparent KD of K4 kissing-loop reporter (input ligand: arginine 13.2 mM): 353 nM | apparent KD of K4 kissing-loop reporter (input ligand: none): 431 nM | apparent KD of K4 kissing-loop reporter [1]: 361 nM | apparent KD of K4 kissing-loop reporter [2]: 378 nM

UGGACCUGACUCGAUAAGAGUCAAUGAGAUACCAGUGACGAAAGUCACCCUUGGCAGCUCACUGCCAGUGAUGUUGGUAGGUCCU [#SwitchBubble 3 #StaticStem]
apparent KD of K4 kissing-loop reporter (input ligand: FMN 200 uM): 1250 nM | apparent KD of K4 kissing-loop reporter (input ligand: arginine 13.2 mM): 919 nM | apparent KD of K4 kissing-loop reporter (input ligand: none): 1300 nM | apparent KD of K4 kissing-loop reporter [1]: 738 nM | apparent KD of K4 kissing-loop reporter [2]: 1070 nM

UGUACCGAUUCAGGAUAUGUCGUCGAAAGACGAAAUGGAGUGAUGUUCCUUAAACUGCGAAAGCAGACAGAAGGGAAUUGGUACU [FmnBS 29 U9+A77]
apparent KD of K4 kissing-loop reporter (input ligand: FMN 200 uM): 146 nM | apparent KD of K4 kissing-loop reporter (input ligand: arginine 13.2 mM): 285 nM | apparent KD of K4 kissing-loop reporter (input ligand: none): 300 nM | apparent KD of K4 kissing-loop reporter [1]: 318 nM | apparent KD of K4 kissing-loop reporter [2]: 284 nM

AGUAGAGCAUCAGAUACCAGACAGAACUGAUGGUAAGGAGUGAUGUUCCUUAAUCAGCUUGUCCCUUGGCAGCUGAUAGUAGUCA [#14 K4 Theophylline B Same State]
apparent KD of K4 kissing-loop reporter (input ligand: FMN 200 uM): 388 nM | apparent KD of K4 kissing-loop reporter (input ligand: arginine 13.2 mM): 417 nM | apparent KD of K4 kissing-loop reporter (input ligand: none): 431 nM | apparent KD of K4 kissing-loop reporter [1]: 348 nM | apparent KD of K4 kissing-loop reporter [2]: 383 nM

GAGAGCUCUGGAGGAUAUGAGUCUAGUGAUGUUAGGCGGUCCAUGCGCGUGGCGCGUUAUGCCCUUUUAGAAGGCCAGAGCUCUC [#2 Exclusion - FMN B Attempt #19 (HarryS)]
apparent KD of K4 kissing-loop reporter (input ligand: FMN 200 uM): 98.3 nM | apparent KD of K4 kissing-loop reporter (input ligand: arginine 13.2 mM): 69.3 nM | apparent KD of K4 kissing-loop reporter (input ligand: none): 99.8 nM | apparent KD of K4 kissing-loop reporter [1]: 113 nM | apparent KD of K4 kissing-loop reporter [2]: 85 nM

CCGAAGAACCAGUGAUGUUGGUUGACUAGACAGGAUAUGAGCAACAUCAGAAGGGUCUGGCUUCGGGAGAGAGUCGCGCUGACCU [Anditebier]
apparent KD of K4 kissing-loop reporter (input ligand: FMN 200 uM): 208 nM | apparent KD of K4 kissing-loop reporter (input ligand: arginine 13.2 mM): 350 nM | apparent KD of K4 kissing-loop reporter (input ligand: none): 388 nM | apparent KD of K4 kissing-loop reporter [1]: 28.7 nM | apparent KD of K4 kissing-loop reporter [2]: 453 nM

GCAACUCUCAGUGAUGUUGAGUUAUCGGAAGGAGCGCGUGAAAACGCAGGUAGGUCGCCGAUACAAUGAGUUUCUCGUUGGUUGC [Arginine A K4 21]
apparent KD of K4 kissing-loop reporter (input ligand: FMN 200 uM): 769 nM | apparent KD of K4 kissing-loop reporter (input ligand: arginine 13.2 mM): 489 nM | apparent KD of K4 kissing-loop reporter (input ligand: none): 664 nM | apparent KD of K4 kissing-loop reporter [1]: 554 nM | apparent KD of K4 kissing-loop reporter [2]: 569 nM

UGUACCGAGUCAGGAUAUGGCGUCGAAAGACGAAACCAGUGAUGUUGGAAUAUCGACGAAAGUCGUCCAGAAGGGACUUGGUACU [FmnBS 17 #SwitchBubble #StaticStem #DoubleMagnetSystem]
apparent KD of K4 kissing-loop reporter (input ligand: FMN 200 uM): 153 nM | apparent KD of K4 kissing-loop reporter (input ligand: arginine 13.2 mM): 264 nM | apparent KD of K4 kissing-loop reporter (input ligand: none): 256 nM | apparent KD of K4 kissing-loop reporter [1]: 264 nM | apparent KD of K4 kissing-loop reporter [2]: 273 nM

AGUGAUGUAUGGCGGUUUGUCACUUAUUAUCAGGAUAUAUAAACAAAUAGAAGGGAUGGCGGAGUGAUGUUCCGCCGGCCGCCAU [FMN A Exl V5]
apparent KD of K4 kissing-loop reporter (input ligand: FMN 200 uM): 172 nM | apparent KD of K4 kissing-loop reporter (input ligand: arginine 13.2 mM): 140 nM | apparent KD of K4 kissing-loop reporter (input ligand: none): 150 nM | apparent KD of K4 kissing-loop reporter [1]: 157 nM | apparent KD of K4 kissing-loop reporter [2]: 166 nM

CCAGGACGAUGAGGAGGAUGAAUUACUGAAGGAGCGCAUAUGGUUGCAGGUAGGUCGCGGUGAACAAGUAUAGUGAUGUUAUACC [SSArgA.T]
apparent KD of K4 kissing-loop reporter (input ligand: FMN 200 uM): 339 nM | apparent KD of K4 kissing-loop reporter (input ligand: arginine 13.2 mM): 290 nM | apparent KD of K4 kissing-loop reporter (input ligand: none): 368 nM | apparent KD of K4 kissing-loop reporter [1]: 343 nM | apparent KD of K4 kissing-loop reporter [2]: 445 nM

UGUAUGGACUGAAGGAGCGGUAGAUAAACUGAGUGAUGUUCGGCAGAUAAAGGCGCAAGCCACCAGGUAGGUCGCAGUCCAUACU [KL-SSArg B3]
apparent KD of K4 kissing-loop reporter (input ligand: FMN 200 uM): 381 nM | apparent KD of K4 kissing-loop reporter (input ligand: arginine 13.2 mM): 274 nM | apparent KD of K4 kissing-loop reporter (input ligand: none): 391 nM | apparent KD of K4 kissing-loop reporter [1]: 408 nM | apparent KD of K4 kissing-loop reporter [2]: 342 nM

GCCGUACGCAUGGAUACCAGAGAUGUUAGUCUCGAUGCCAGUGAUGUUGGCUAUAGCAUACUCCCUUGGCAGCCAUGCGUACGGC
apparent KD of K4 kissing-loop reporter (input ligand: FMN 200 uM): 132 nM | apparent KD of K4 kissing-loop reporter (input ligand: arginine 13.2 mM): 113 nM | apparent KD of K4 kissing-loop reporter (input ligand: none): 128 nM | apparent KD of K4 kissing-loop reporter [1]: 113 nM | apparent KD of K4 kissing-loop reporter [2]: 107 nM

UUUGAAAUGACUGAUACCAGUGAAAAUAUAUGUAGUGAUGUUAUAUACUAAUUUAAUAAGCGCCCUUGGCAGCAGUAUGAAUUAU [AstrosExc-theB#16]
apparent KD of K4 kissing-loop reporter (input ligand: FMN 200 uM): 763 nM | apparent KD of K4 kissing-loop reporter (input ligand: arginine 13.2 mM): 565 nM | apparent KD of K4 kissing-loop reporter (input ligand: none): 927 nM | apparent KD of K4 kissing-loop reporter [1]: 527 nM | apparent KD of K4 kissing-loop reporter [2]: 560 nM

ACACUCGGCUCGGCCGCCACUCCAGUGAUGUUGGAGUCAUAGCUAUGACGAGAAGAGCGUUUUCGGAGGACCGGGAGCUCACAGG [Leveeder]
apparent KD of K4 kissing-loop reporter (input ligand: FMN 200 uM): 338 nM | apparent KD of K4 kissing-loop reporter (input ligand: arginine 13.2 mM): 261 nM | apparent KD of K4 kissing-loop reporter (input ligand: none): 359 nM | apparent KD of K4 kissing-loop reporter [1]: 351 nM | apparent KD of K4 kissing-loop reporter [2]: 222 nM

UGUACCGAGUCAGGAUAUGACGACUAGUCAAAGACUGGUCGAAAAUCCAGUGAUGUUGGAAAUAAAUCAGAAGGGACUUGGUACU [FmnBS 16 #SwitchBubble #StaticStem]
apparent KD of K4 kissing-loop reporter (input ligand: FMN 200 uM): 124 nM | apparent KD of K4 kissing-loop reporter (input ligand: arginine 13.2 mM): 309 nM | apparent KD of K4 kissing-loop reporter (input ligand: none): 272 nM | apparent KD of K4 kissing-loop reporter [1]: 357 nM | apparent KD of K4 kissing-loop reporter [2]: 296 nM

AGGAGUGAUGUUCCUACAUAGACGGUCCGACGAGGACCGGUACGGCCGCCACUCGCGUCCCAGUGAUGUUGGGAUUCAACGUACA [Exclusion Tryptophan A Gf 15]
apparent KD of K4 kissing-loop reporter (input ligand: FMN 200 uM): 120 nM | apparent KD of K4 kissing-loop reporter (input ligand: arginine 13.2 mM): 150 nM | apparent KD of K4 kissing-loop reporter (input ligand: none): 139 nM | apparent KD of K4 kissing-loop reporter [1]: 149 nM | apparent KD of K4 kissing-loop reporter [2]: 122 nM
